# B1: HDV Ribozyme (parent)
# chain: GGCCGGCAUGGUCCCAGCCUCCUCGCUGGCGCCGGCUGGGCAACAUUCCGAGGGGACCGUCCCCUCGGUAAUGGCGAAUGGGACCCA
# Variants of: B1
# Assay: self-cleavage, relative activity (ratio to wild type); higher = more cleavage; co-transcriptional
row,Variant,self-cleavage
1,G31U A87C,0.358
2,G31U A87G,0.323
3,G31A G59C,0.348
4,G31C G80U,0.0811
5,G31C G80A,0.128
6,G31C A70C,0.266
7,G31A G76A,0.606
8,G31A G76U,0.749
9,G31A C66U,0.387
10,G31C C75A,0.13
11,G31C C75U,0.111
12,G31C G55A,0.546
13,G31C G55U,0.338
14,G31U A56C,0.389
15,G31A C85A,0.415
16,G31A C85U,0.404
17,G31A G53C,0.305
18,G31A G53U,0.346
19,G31C G68U,0.233
20,G31C G68C,0.138
21,G31C G34A,0.0963
22,G31C U47G,0.383
23,G31C U47C,0.499
24,G31C U46C,0.178

row,Variant,self-cleavage
1,G31C G52C,0.277
2,G31U C44A,0.0707
3,G31U C44U,0.156
4,G31C G53U,0.496
5,G31C G53A,0.572
6,G31A G38C,0.142
7,G31U C41U,0.151
8,G31U C41G,0.0437
9,G31U A71U,0.181
10,G31U C84U,0.363
11,G31U C84G,0.138
12,G31U C84A,0.146
13,G31U A51G,0.369
14,G31U A51U,0.525
15,G31A G55U,0.347
16,G31U A83G,0.16
17,G31U A83C,0.0898
18,G31U A83U,0.0627
19,G31C G73A,0.0346
20,G31C G73U,0.0779
21,G31A G35A,0.0455
22,G31C G50U,0.208
23,G31C G50A,0.343
24,G31C U60G,0.222

row,Variant,self-cleavage
1,G31A G50U,0.442
2,G31A G50A,0.626
3,G31U C63U,0.41
4,G31U C63G,0.483
5,G31U C63A,0.468
6,G31A G40C,0.144
7,G31A G80A,0.103
8,G31A G80C,0.185
9,G31C G74U,0.143
10,G31C G74C,0.106
11,G31C G67U,0.402
12,G31C G67C,0.272
13,G31C G39A,0.0554
14,G31A U72G,0.145
15,G31A U72C,0.256
16,G31C C33A,0.0875
17,G31C C33G,0.0852
18,G31A G81C,0.179
19,G31C G40U,0.229
20,G31C G40C,0.0346
21,G31U,0.47
22,G31C,0.363
23,G31A U47A,0.332
24,G31A U47C,0.424

row,Variant,self-cleavage
1,G31A U46G,0.0852
2,G31A U46C,0.166
3,G31A G54C,0.254
4,G31A G54U,0.197
5,G31A G54A,0.295
6,G31C A42C,0.128
7,G31C A42U,0.0707
8,G31C C57G,0.291
9,G31C C57A,0.282
10,G31C U37C,0.0707
11,G31A U60C,0.32
12,G31C C64G,0.292
13,G31C C64U,0.324
14,G31C C64A,0.148
15,G31C C85U,0.299
16,G31C C85A,0.317
17,G31C G59A,0.483
18,G31C G59C,0.378
19,G31C C62U,0.386
20,G31C U79G,0
21,G31U A77U,0.0665
22,G31U A77G,0.231
23,G31A C86G,0.573
24,G31A U65C,0.462

row,Variant,self-cleavage
1,G31A U65A,0.366
2,G31A U65G,0.34
3,G31C U65G,0.48
4,G31C U65A,0.394
5,G31A G67C,0.513
6,G31A C64A,0.359
7,G31C C58U,0.339
8,G31C C58G,0.289
9,G31C C58A,0.325
10,G31C A45G,0.293
11,G31C A45C,0.104
12,G31A G39U,0.0898
13,G31A G39A,0.257
14,G31U A45U,0.175
15,G31U C32U,0.115
16,G31U C32G,0.0978
17,G31A C84A,0.326
18,G31A C84U,0.337
19,G31A C62U,0.554
20,G31U C58U,0.571
21,G31U C58G,0.282
22,G31C C32G,0.0396
23,G31C C32A,0.0875
24,G31C C32U,0.0723

row,Variant,self-cleavage
1,G31U C64G,0.514
2,G31U C64U,0.475
3,G31U A43U,0.149
4,G31U A43C,0.0504
5,G31A G34U,0.0863
6,G31C G35A,0.16
7,G31C A87C,0.531
8,G31C A87G,0.226
9,G31U C62G,0.19
10,G31U C62U,0.404
11,G31C C86A,0.312
12,G31C C86U,0.295
13,G31U C49A,0.451
14,G31C G38A,0.0692
15,G31C G38C,0.135
16,G31C C48U,0.475
17,G31C C41A,0.305
18,G31C C41U,0.138
19,G31A G74A,0.132
20,G31C C84A,0.443
21,G31C A56U,0.305
22,G31C A56C,0.325
23,G31C G81U,0.086
24,G31C C66A,0.405

row,Variant,self-cleavage
1,G31C C44U,0.106
2,G31U C48A,0.401
3,G31C A78U,0.148
4,G31C G82A,0.0563
5,G31C A77C,0.225
6,G31C A51U,0.212
7,G31U A70U,0.365
8,G31U C57G,0.439
9,G31A U69C,0.525
10,G31C C61A,0.332
11,G31A G82A,0.166
12,G31A G82C,0.146
13,G31A U37G,0.242
14,G31A U37C,0.366
15,G31U C33G,0.0639
16,G31U C33U,0.125
17,G31U C33A,0.0231
18,G31C A83G,0.219
19,G31C A83U,0.173
20,G31A C75U,0.122
21,G31C G54U,0.332
22,G31U C36G,0.0906
23,G31U C36A,0.106
